# Results published in patent publication US20230138315A1 (JIANGSU HENGRUI MEDICINE, published 2023).
# T1: rat ANGPTL3(17-455)-His (rat, biotin-labelled in the ELISA and HTRF assays (sites not given))
# T1 construct: also called full-length rat ANGPTL3
# T1 chain: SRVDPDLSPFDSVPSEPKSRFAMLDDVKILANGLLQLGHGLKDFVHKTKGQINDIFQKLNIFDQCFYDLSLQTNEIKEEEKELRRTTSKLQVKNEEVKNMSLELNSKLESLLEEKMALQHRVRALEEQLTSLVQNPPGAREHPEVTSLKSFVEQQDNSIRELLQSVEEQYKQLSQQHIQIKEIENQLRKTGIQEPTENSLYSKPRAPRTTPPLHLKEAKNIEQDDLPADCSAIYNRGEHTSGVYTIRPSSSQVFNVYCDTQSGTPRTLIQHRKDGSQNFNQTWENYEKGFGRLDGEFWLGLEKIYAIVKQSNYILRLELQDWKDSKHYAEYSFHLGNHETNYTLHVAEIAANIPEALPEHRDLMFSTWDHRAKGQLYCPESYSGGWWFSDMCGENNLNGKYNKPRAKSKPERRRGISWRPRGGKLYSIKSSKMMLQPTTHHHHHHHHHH
# T2: human-ANGPTL3(17-460)-His (human, UniProt Q9Y5C1 17-460, biotin-labelled (labelling kit, sites not stated))
# T2 construct: also called full-length human ANGPTL3
# T2 sequence: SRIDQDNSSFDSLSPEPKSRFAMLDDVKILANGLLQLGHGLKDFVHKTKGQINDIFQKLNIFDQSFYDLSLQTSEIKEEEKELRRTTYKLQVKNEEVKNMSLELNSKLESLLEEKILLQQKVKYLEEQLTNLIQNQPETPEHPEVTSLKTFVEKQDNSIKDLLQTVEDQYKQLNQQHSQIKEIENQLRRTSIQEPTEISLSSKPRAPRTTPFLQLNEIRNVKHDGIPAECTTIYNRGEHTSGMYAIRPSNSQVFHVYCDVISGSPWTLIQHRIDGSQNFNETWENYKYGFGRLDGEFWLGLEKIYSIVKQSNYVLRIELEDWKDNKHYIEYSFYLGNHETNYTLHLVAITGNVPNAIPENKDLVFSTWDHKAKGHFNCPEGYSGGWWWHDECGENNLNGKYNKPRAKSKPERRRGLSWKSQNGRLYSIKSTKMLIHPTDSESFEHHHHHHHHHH
# T3: cynomolgus monkey ANGPTL3(17-460)-His (cynomolgus monkey, UniProt Q9Y5C1 17-460 (human entry), biotin-labelled in the ELISA and HTRF assays (sites not given))
# T3 construct: also called full-length cynomolgus monkey ANGPTL3; Cyno ANGPTL3
# T3 chain: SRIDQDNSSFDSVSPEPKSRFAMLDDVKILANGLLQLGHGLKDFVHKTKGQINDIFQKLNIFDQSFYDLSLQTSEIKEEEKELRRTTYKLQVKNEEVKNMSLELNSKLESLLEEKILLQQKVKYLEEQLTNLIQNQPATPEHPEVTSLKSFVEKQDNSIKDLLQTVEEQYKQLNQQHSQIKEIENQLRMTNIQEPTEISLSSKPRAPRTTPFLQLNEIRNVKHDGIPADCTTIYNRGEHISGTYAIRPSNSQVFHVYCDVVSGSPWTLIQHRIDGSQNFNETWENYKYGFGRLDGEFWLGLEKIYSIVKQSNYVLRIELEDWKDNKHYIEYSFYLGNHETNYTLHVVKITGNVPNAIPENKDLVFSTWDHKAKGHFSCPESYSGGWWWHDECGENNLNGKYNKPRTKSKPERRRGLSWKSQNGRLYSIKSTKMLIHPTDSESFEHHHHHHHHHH
# T4: mouse ANGPTL3(17-455)-His (mouse, UniProt Q9R182 17-455, biotin-labelled in the ELISA and HTRF assays (sites not given))
# T4 construct: also called full-length mouse ANGPTL3
# T4 sequence: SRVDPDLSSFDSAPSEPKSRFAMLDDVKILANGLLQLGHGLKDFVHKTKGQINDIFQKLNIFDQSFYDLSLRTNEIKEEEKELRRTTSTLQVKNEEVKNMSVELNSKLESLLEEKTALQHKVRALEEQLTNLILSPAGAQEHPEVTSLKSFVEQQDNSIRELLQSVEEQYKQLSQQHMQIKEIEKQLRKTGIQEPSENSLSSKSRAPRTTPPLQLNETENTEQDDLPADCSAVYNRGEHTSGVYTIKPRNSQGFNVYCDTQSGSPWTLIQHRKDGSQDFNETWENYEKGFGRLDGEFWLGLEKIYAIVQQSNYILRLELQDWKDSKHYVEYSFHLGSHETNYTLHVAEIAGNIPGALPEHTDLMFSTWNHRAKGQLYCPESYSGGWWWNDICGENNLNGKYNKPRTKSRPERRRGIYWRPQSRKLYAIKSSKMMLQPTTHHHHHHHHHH
# Tests used:
# Assay in all cases: HTRF; biotin-labelled antigen with Streptavidin-Tb cryptate
# rat ANGPTL3(17-455)-His = target: T1, rat ANGPTL3(17-455)-His
# [1] = target: T2, human-ANGPTL3(17-460)-His
# [2] = target: T3, cynomolgus monkey ANGPTL3(17-460)-His
# [3] = target: T4, mouse ANGPTL3(17-455)-His
Binder,EC50 (rat ANGPTL3(17-455)-His) [nM],EC50 [1] [nM],EC50 [2] [nM],EC50 [3] [nM]
"P3G (antibody, human IgG4 S228P, kappa, V domains shown, also called anti-ANGPTL3 antibody P3G; P3 (variable regions)) VH: QVQLVQSGAEVKKPGASVKVSCKSSGYTFTDYYLHWLRQAPGQGPEWMGWISPNSGGTSYAQKFQGRVTMTRDTSISTAYMELSSLRSDDTAVYYCARDIATLGNFFTYGMDVWGQGTTVTVSS VL: DIQLTQSPSSLSASVGDRVTITCRASQGIRNDLGWYQQKPGKAPKLLIYAASSLQSGVPSRFSGSGSGTDFTLTISSLQPEDFATYYCQQSYSSWTFGQGTKVEIKR",0.597,0.929,0.502,0.638
"P8G (antibody, human IgG4 S228P, kappa, V domains shown, also called anti-ANGPTL3 antibody P8G; P8 (variable regions)) VH: QVQLVQSGAEVKKPGASVKVSCKASGYTFTSYDINWVRQAPGQGLEWVGLINPRDDSTSYAQKFQGRVTMTRDTSTSTMYMELSSLRSEDTAVYFCARDLGSIREVLYYGMDVWGQGTTVTVSS VL: not shown",0.484,0.784,0.303,0.45
